Consider 94 variants from the supplement of paper PMC10567573.

B1: ZNF8 (parent)
chain: KPYTCSVCGKSFSRTTCLFLHLRT
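Note: lentivirally expressed fusions sorted by FACS into six bins by GFP to DsRed ratio, PSI derived from sequencing read proportions per bin multiplied by bin number.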

The data set covers variants of B1. In words: protein stability index of a GFP-peptide fusion (GPS, HEK-293T) (PSI 1-6); higher = more stable. The settings on record: c terminus: a fixed tail appended.
KPYTCSVCGKSFHRTTCLFLHLRT [S13H]: the protein stability index is 1.63.

For KPYTCSVCGKSFWRTTCLFLHLRT [S13W], the protein stability index was 1.87.

Regarding KPYTCSVCGKSFDRTTCLFLHLRT [S13D], the protein stability index stood at 1.94.

Turning to KPYTCSVCGKSFMRTTCLFLHLRT [S13M], the protein stability index stood at 1.88.

As for KPDTCSVCGKSFSRTTCLFLHLRT [Y3D], the protein stability index came out at 2.07.

In the case of KPTTCSVCGKSFSRTTCLFLHLRT [Y3T], the protein stability index is 2.4.

Turning to KPVTCSVCGKSFSRTTCLFLHLRT [Y3V], the protein stability index was 2.1.

Regarding KPFTCSVCGKSFSRTTCLFLHLRT [Y3F], the protein stability index is 1.4.

KPGTCSVCGKSFSRTTCLFLHLRT [Y3G]: the protein stability index stood at 1.61.

For KPCTCSVCGKSFSRTTCLFLHLRT [Y3C], the protein stability index was 1.7.

Turning to KPYTCSVCGKSFSRTTCLFLHLKT [R23K], the protein stability index is 2.06.

Take KPYTCSVCGKSFSRTTCLFLHLDT [R23D]: the protein stability index came out at 1.91.

Take KPYTCSVCGKSFSRTTCLFLHLWT [R23W]: the protein stability index stood at 1.75.

Take KPYTCSVCGKSFSRTTCLFLHLFT [R23F]: the protein stability index is 1.64.

For KPYTCSVCGKSFSRTTCLFLHLST [R23S], the protein stability index amounted to 1.83.

Regarding KPYTCSVCGKSFSRTTCLFLHLCT [R23C], the protein stability index is 2.06.

Turning to KPYTCSVCGKSFSRTTCLFLHLTT [R23T], the protein stability index was determined as 1.95.

In the case of KPYTCSVCGKSFSRTTCLFLHLYT [R23Y], the protein stability index was 1.84.

Regarding KPYTCSVCGKSFSRTTCLFLHSRT [L22S], the protein stability index came out at 2.11.

Take KPYTCSVCGKSFSRTTCLFLHWRT [L22W]: the protein stability index was 1.74.

Turning to KPYTCSVCGKSFSRTTCLFLHCRT [L22C], the protein stability index turned out to be 2.24.

For KPYTCSVCGKSFSRTTCLFLHFRT [L22F], the protein stability index is 1.82.

On to KPYTCSVCGKSFSRTTCLFLHGRT [L22G], for which the protein stability index was found to be 2.03.

KPYTCSVCGKSFSRTTCLFLHIRT [L22I]: the protein stability index was 1.96.

In the case of KPYTCSVCGKSFSRTTCLFLHNRT [L22N], the protein stability index was 2.57.

As to KPYTCSVCGKSFSRTTCLFLHYRT [L22Y], the protein stability index came to 1.8.

Consider KPYTCSVCGKSFSRTTCLFLHDRT [L22D], for which the protein stability index turned out to be 2.04.

Regarding EPYTCSVCGKSFSRTTCLFLHLRT [K1E], the protein stability index worked out at 2.19.

As for LPYTCSVCGKSFSRTTCLFLHLRT [K1L], the protein stability index was determined as 2.27.

In the case of IPYTCSVCGKSFSRTTCLFLHLRT [K1I], the protein stability index turned out to be 2.04.

As for HPYTCSVCGKSFSRTTCLFLHLRT [K1H], the protein stability index was 2.1.

Turning to TPYTCSVCGKSFSRTTCLFLHLRT [K1T], the protein stability index is 1.67.

With QPYTCSVCGKSFSRTTCLFLHLRT [K1Q], the protein stability index turned out to be 2.39.

Regarding KPYTCSVCGKSFSWTTCLFLHLRT [R14W], the protein stability index worked out at 1.66.

As to KPYTCSVCGKSFSHTTCLFLHLRT [R14H], the protein stability index stood at 2.3.

As for KPYTCSVCGKSFSPTTCLFLHLRT [R14P], the protein stability index is 2.45.

In the case of KPYTCSVCGKSFSFTTCLFLHLRT [R14F], the protein stability index was 1.6.

For KPYTCSVCGKSFSLTTCLFLHLRT [R14L], the protein stability index amounted to 1.65.

Take KPYTCSVCGKSFSRTTPLFLHLRT [C17P]: the protein stability index came out at 1.91.

KPYTCSVCGKSFSRTTYLFLHLRT [C17Y]: the protein stability index worked out at 2.15.

Consider KPYTCSVCGKSFSRTTFLFLHLRT [C17F], for which the protein stability index is 1.92.

With KPYTCSVCGKSFSRTTNLFLHLRT [C17N], the protein stability index was 1.96.

Turning to KPYTCSVCGKSFSRTTQLFLHLRT [C17Q], the protein stability index was determined as 2.58.

Regarding KPYTCSVCGKSFSRTTLLFLHLRT [C17L], the protein stability index turned out to be 2.39.

On to KPYTCSVCGKSFSRTTELFLHLRT [C17E], for which the protein stability index came to 3.61.

As for KPYTCSVCGKSFSRTTCLFLVLRT [H21V], the protein stability index came to 1.8.

For the variant KPYTCSVCGKSFSRTTCLFLDLRT [H21D], the protein stability index was determined as 1.35.

Consider KPYTCSVCGKSFSRTTCLFLLLRT [H21L], for which the protein stability index is 2.39.

As for KPYTCSVCGKSFSRTTCLFLWLRT [H21W], the protein stability index was determined as 1.75.

Consider KPYTCSVCGKSFSRTTCLFLCLRT [H21C], for which the protein stability index amounted to 2.37.

Take KPYTCSVCGKSFSRTTCLFLQLRT [H21Q]: the protein stability index stood at 2.28.

With KPYTCSVCGKSFSRTTCLFLMLRT [H21M], the protein stability index came to 2.16.

As to KPYTCSVCGKSFSRTTCLFLNLRT [H21N], the protein stability index was 1.6.

Take KPYTCSVCGKSFSRTTCLFLKLRT [H21K]: the protein stability index is 2.04.

In the case of KPYTCSVKGKSFSRTTCLFLHLRT [C8K], the protein stability index was 2.45.

Consider KPYTCSVVGKSFSRTTCLFLHLRT [C8V], for which the protein stability index stood at 1.97.

Take KPYTCSVWGKSFSRTTCLFLHLRT [C8W]: the protein stability index amounted to 2.5.

Take KPYTCSVFGKSFSRTTCLFLHLRT [C8F]: the protein stability index was 4.22.

Take KPYTCSVRGKSFSRTTCLFLHLRT [C8R]: the protein stability index came out at 3.12.

Regarding KPYTCSVQGKSFSRTTCLFLHLRT [C8Q], the protein stability index turned out to be 4.56.

On to KPYTCSVCGKSFSRETCLFLHLRT [T15E], for which the protein stability index amounted to 2.64.

As for KPYTCSVCGKSFSRFTCLFLHLRT [T15F], the protein stability index is 2.9.

Regarding KPYTCSVCGKSFSRRTCLFLHLRT [T15R], the protein stability index was determined as 2.58.

As to KPYTCSVCGKSFSRPTCLFLHLRT [T15P], the protein stability index is 2.47.

Turning to KPYTCSVCGKSFSRCTCLFLHLRT [T15C], the protein stability index is 2.49.

KPYTCSVCGKSFSRNTCLFLHLRT [T15N]: the protein stability index was found to be 2.02.

KPYTCSVCGKSFSRVTCLFLHLRT [T15V]: the protein stability index was 2.44.

Turning to KPYTCSVCGKSFSRITCLFLHLRT [T15I], the protein stability index was 2.62.

Consider KPYTCSVCGKSFSRMTCLFLHLRT [T15M], for which the protein stability index came out at 2.73.

On to KPYTCSVCGKSFSRATCLFLHLRT [T15A], for which the protein stability index amounted to 2.45.

Take KPYTCSVCGKSFSRTTCLNLHLRT [F19N]: the protein stability index is 2.36.

As for KPYTCSVCGKSFSRTTCLHLHLRT [F19H], the protein stability index amounted to 2.26.

As to KPYTCSVCGKSFSRTTCLTLHLRT [F19T], the protein stability index amounted to 1.78.

In the case of KPYTCSVCGKSFSRTTCLLLHLRT [F19L], the protein stability index came to 1.73.

KPYTCSVCGKSFSRTTCLGLHLRT [F19G]: the protein stability index turned out to be 1.93.

KPYTCSVCGKSFSRTTCLYLHLRT [F19Y]: the protein stability index was determined as 2.44.

Regarding KPYTCSVCGKSFSRTTCLDLHLRT [F19D], the protein stability index came out at 2.79.

Take KPYTCSVCGKSFSRTTCLKLHLRT [F19K]: the protein stability index worked out at 1.93.

In the case of KPYTCSVCGKSFSRTTCLWLHLRT [F19W], the protein stability index is 1.57.

With KPYTCSVCGKSFSRTTCLPLHLRT [F19P], the protein stability index was 2.45.

KPYTCSVCGKSFSRTTCLQLHLRT [F19Q]: the protein stability index worked out at 2.54.

With KPYTCSVCGKGFSRTTCLFLHLRT [S11G], the protein stability index is 1.51.

Consider KPYTCSVCGKEFSRTTCLFLHLRT [S11E], for which the protein stability index was 2.67.

Regarding KPYTCSVCGKWFSRTTCLFLHLRT [S11W], the protein stability index came to 1.71.

Turning to KPYTCSVCGKNFSRTTCLFLHLRT [S11N], the protein stability index came out at 2.12.

Take KPYTCSVCGKLFSRTTCLFLHLRT [S11L]: the protein stability index stood at 1.69.

With KPYTGSVCGKSFSRTTCLFLHLRT [C5G], the protein stability index is 3.6.

In the case of KPYTLSVCGKSFSRTTCLFLHLRT [C5L], the protein stability index amounted to 3.52.

For KPYTESVCGKSFSRTTCLFLHLRT [C5E], the protein stability index is 3.3.

KPYTSSVCGKSFSRTTCLFLHLRT [C5S]: the protein stability index amounted to 1.56.

As to KPYTQSVCGKSFSRTTCLFLHLRT [C5Q], the protein stability index turned out to be 2.29.

Regarding KPYTMSVCGKSFSRTTCLFLHLRT [C5M], the protein stability index came out at 2.18.

Consider KPYTFSVCGKSFSRTTCLFLHLRT [C5F], for which the protein stability index was found to be 2.46.

KPYTNSVCGKSFSRTTCLFLHLRT [C5N]: the protein stability index was 2.43.
